“Also recorded” adds a separate entry of the source.
Tests used:
Assay type in all cases: cell-based, human
[1] = test system: hfRPE; test: quantitative real-time PCR of gene expression in IFNγ-treated hfRPE; settings: for Threshold Cycle (Ct) CFTR / Threshold Cycle (Ct) IFNGR1 / Threshold Cycle (Ct) IFNGR2 / Threshold Cycle (Ct) IRF-1 / Threshold Cycle (Ct) IRF-2 / Threshold Cycle (Ct) PIAS1 / Threshold Cycle (Ct) SOCS3 / Threshold Cycle (Ct) STAT1 / Threshold Cycle (Ct) NOS2A / Threshold Cycle (Ct) IRF-8: IFNγ 25 ng/ml
Description: qRT-PCR was performed as previously described in Li, R. et al., 2007, Invest Ophthalmol Vis Sci, 48, 5722-5732—incorporated by reference in its entirety herein. Confluent monolayers of hfRPE cultured in 24-well plates were treated with IFNγ (25 ng/ml) in SFM and harvested at 0 minutes, 30 minutes, 2 hours, 6 hours, 15 hours and 24 hours, in triplicate for each time point. 1 μg total mRNA isolated from the harvested cells (RNeasy Kit, Qiagen) was reverse-transcribed (SuperScript® III First-Strand Synthesis System for RT-PCR, Invitrogen). Real-time PCR (TagMan®, Applied Biosystems) was used to quantify expression of the interferon regulatory factors IRF-1, IRF-2, and IRF-8; signal transducer and activator of transcription 1 (STAT1); suppressor of cytokine signaling 3 (SOCS3); protein inhibitor of activated STAT1 (PIAS1); inducible nitric oxide synthase (NOS2A); IFNγ receptor subunit R1 (IFNGR1); IFNα receptor subunit R1 (IFNAR1); IFNγ receptor subunit R2 (IFNGR2); cystic fibrosis transmembrane conductance regulator (CFTR); and Glyceraldehyde 3-phosphate dehydrogenase (GAPDH). The mRNA concentration of each gene was normalized against GAPDH. qRT-PCR was performed on the ABI Sequence Detection System 7900 (Applied Biosystems).

[2] = test system: hfRPE cells; test: JC-1 staining of mitochondrial membrane potential
Description: Mitochondrial membrane potential change (w) was assessed in live hfRPE cells using the lipophilic cationic probe 5,5′,6,6′-tetrachloro-1,1′3,3′-tetraethylbenzimidazol-carbocyanine iodide (JC-1) following the manufacturer's instructions and as described in Voloboueva, L. A., et al., Invest Ophthalmol Vis Sci, 2005, 46, 4302-4310, incorporated herein by reference in its entirety. Confluent monolayers of hfRPE were treated with different concentrations of IFNγ (0.5, 5, 50 ng/ml) for 24, 48, or 72 hours and then incubated with JC-1 solution for 30 minutes at 37° C. Fluorescence was evaluated with a Zeiss Axiovert 25 inverted microscope.

[3] = test system: hfRPE cells; test: BrdU incorporation assay, hfRPE proliferation
Description: BrdU incorporation was performed as described in Li, R. et al., 2007, Invest Ophthalmol Vis Sci, 48, 5722-5732, incorporated by reference in its entirety herein. IFNγ, TNFα, and IL-1β were obtained from Peprotech, Rocky Hill, N.J., and Universal Type I Interferon (cat: 11200-1) or human interferon beta la were from PBL biomedical laboratories (New Brunswick, N.J.). Cumulative effects were measured by adding VEGF165, EGF and bFGF (Peprotech), and PDGF-BB (R & D Systems) with IFNγ. Anti-human IFNγ R1 blocking antibody (R & D Systems, Minneapolis, Minn.), JAK inhibitor I, AG490, or JAK3 inhibitor II (EMD Biosciences, Gibbstown, N.J.) was added to the cells one hour prior to the addition of IFNγ. SFM was used as the negative control and SFM supplemented with 5% serum was used as positive control. After treatment for 48 hours, RPE cells were incubated with BrdU for 24 hours. The proliferation rate was evaluated using a Cell proliferation ELISA BrdU Kit (Roche, Ind.). Quadruplicate wells were used for each condition and the experiments were repeated at least two times using cell cultures from different donors. Cell viability was evaluated using a Live/Dead Viability/Cytotoxicity Kit (Invitrogen).

B1: IFNγ: pleiotropic cytokine produced by T- and NK-cells; obtained from Peprotech (protein, UniProt P01579 24-161, looked up)
Interferon gamma: QDPYVKEAENLKKYFNAGHSDVADNGTLFLGILKNWKEESDRKIMQSQIVSFYFKLFKNFKDDQSIQKSVETIKEDMNVKFFNSNKKKRDDFEKLTNYSVTDLNVQRKAIHELIQVMAELSPAAKTGKRKRSQMLFRG
[1]; 25 ng/ml IFNγ, hfRPE
  IRF-2 mRNA fold change: 3 fold
  up-regulation of IRF-1 transcription: > 400 fold
  up-regulation of STAT1 transcription: > 30 fold
[1]; 0 hr
  Threshold Cycle (Ct) CFTR: 38.0
  Threshold Cycle (Ct) IFNGR1: 26.4
  Threshold Cycle (Ct) IFNGR2: 26.0
  Threshold Cycle (Ct) IRF-1: 31.1
  Threshold Cycle (Ct) IRF-2: 27.6
  Threshold Cycle (Ct) PIAS1: 27.0
  Threshold Cycle (Ct) SOCS3: 26.9
  Threshold Cycle (Ct) STAT1: 26.2
[1]; 0.5 hr
  Threshold Cycle (Ct) CFTR: 36.9
  Threshold Cycle (Ct) IFNGR1: 26.4
  Threshold Cycle (Ct) IFNGR2: 26.0
  Threshold Cycle (Ct) IRF-1: 27.4
  Threshold Cycle (Ct) IRF-2: 27.6
  Threshold Cycle (Ct) NOS2A: 39.1
  Threshold Cycle (Ct) PIAS1: 26.9
  Threshold Cycle (Ct) SOCS3: 25.4
  Threshold Cycle (Ct) STAT1: 25.8
[1]; 2 hr
  Threshold Cycle (Ct) CFTR: 37.3
  Threshold Cycle (Ct) IFNGR1: 26.4
  Threshold Cycle (Ct) IFNGR2: 25.1
  Threshold Cycle (Ct) IRF-1: 22.2
  Threshold Cycle (Ct) IRF-2: 26.0
  Threshold Cycle (Ct) IRF-8: 30.9
  Threshold Cycle (Ct) NOS2A: 35.9
  Threshold Cycle (Ct) PIAS1: 27.2
  Threshold Cycle (Ct) SOCS3: 24.6
  Threshold Cycle (Ct) STAT1: 22.1
[1]; 6 hr
  Threshold Cycle (Ct) CFTR: 38.5
  Threshold Cycle (Ct) IFNGR1: 26.3
  Threshold Cycle (Ct) IFNGR2: 24.7
  Threshold Cycle (Ct) IRF-1: 22.3
  Threshold Cycle (Ct) IRF-2: 25.6
  Threshold Cycle (Ct) IRF-8: 31.1
  Threshold Cycle (Ct) NOS2A: 31.6
  Threshold Cycle (Ct) PIAS1: 27.1
  Threshold Cycle (Ct) SOCS3: 24.0
  Threshold Cycle (Ct) STAT1: 21.0
[1]; 15 hr
  Threshold Cycle (Ct) IFNGR1: 26.5
  Threshold Cycle (Ct) IFNGR2: 25.1
  Threshold Cycle (Ct) IRF-1: 22.3
  Threshold Cycle (Ct) IRF-2: 26.0
  Threshold Cycle (Ct) IRF-8: 32.0
  Threshold Cycle (Ct) NOS2A: 32.7
  Threshold Cycle (Ct) PIAS1: 26.8
  Threshold Cycle (Ct) SOCS3: 24.8
  Threshold Cycle (Ct) STAT1: 21.3
[1]; 24 hr
  Threshold Cycle (Ct) CFTR: 37.9
  Threshold Cycle (Ct) IFNGR1: 26.3
  Threshold Cycle (Ct) IFNGR2: 25.2
  Threshold Cycle (Ct) IRF-1: 22.2
  Threshold Cycle (Ct) IRF-2: 26.1
  Threshold Cycle (Ct) IRF-8: 31.9
  Threshold Cycle (Ct) NOS2A: 33.5
  Threshold Cycle (Ct) PIAS1: 26.7
  Threshold Cycle (Ct) SOCS3: 24.9
  Threshold Cycle (Ct) STAT1: 21.2
[1]; IFNγ-treated hfRPE
  SOCS3 mRNA levels: increased
  effect on CFTR mRNA expression: No effect; also recorded: small decrease
  effect on IFNGR1 expression: No effect
  effect on PIAS1 expression: No effect; also recorded: does not affect
  increase of SOCS3 mRNA: 7 fold
[1]; after 2 hours of IFNγ, constitutive level under detection
  IRF-8 mRNA detectability: became detectable
[1]; after 6 hours of IFNγ
  increase in IFNGR2 expression: ≈ 2 fold
[1]; after 6 hours of IFNγ, constitutive levels undetectable
  NOS2A expression: significantly up-regulated
[2]; 24 or 48 hour time points
  mitochondrial membrane potential (JC-1): no significant differences
[2]; IFNγ 0.5, 5, 50 ng/ml, 72 hours
  mitochondrial membrane potential (JC-1 aggregate fluorescence): dose-dependent decrease
[3]; 0.5-80 ng/ml
  effect on hfRPE proliferation (BrdU incorporation): strong inhibitory effect
[3]; IFNγ 5 ng/ml
  effect on hfRPE proliferation induced by bFGF, PDGF-BB, VEGF: significantly inhibited
[3]; IFNγ alone 5 ng/ml, 5% FBS or 0% FBS
  effect on hfRPE cell proliferation: significantly inhibited
[3]; other experiments, data not shown
  concentration as low as which hfRPE proliferation was inhibited: 0.02 ng/mL
